Results reported in paper PMC4176333.
Where two headings read alike, the source gives them in different places.

Tests used:
Hera_core [1] = molecular target: T1, Hera_core (UniProt Q72GF3 1-365); assay: fluorescence intensity titration
T1 sequence: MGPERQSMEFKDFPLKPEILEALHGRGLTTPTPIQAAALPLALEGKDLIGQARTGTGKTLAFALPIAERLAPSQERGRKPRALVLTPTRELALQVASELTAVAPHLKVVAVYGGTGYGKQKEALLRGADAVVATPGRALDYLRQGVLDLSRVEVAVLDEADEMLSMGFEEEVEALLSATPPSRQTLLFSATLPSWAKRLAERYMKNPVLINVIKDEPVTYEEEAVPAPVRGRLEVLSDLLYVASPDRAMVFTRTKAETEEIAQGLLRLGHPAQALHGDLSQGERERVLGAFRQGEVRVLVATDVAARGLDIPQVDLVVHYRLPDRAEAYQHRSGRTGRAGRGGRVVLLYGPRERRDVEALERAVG

Hera RecA_N = molecular target: T2, Hera RecA_N (UniProt Q72GF3 1-207); assay: fluorescence intensity titration
T2 sequence: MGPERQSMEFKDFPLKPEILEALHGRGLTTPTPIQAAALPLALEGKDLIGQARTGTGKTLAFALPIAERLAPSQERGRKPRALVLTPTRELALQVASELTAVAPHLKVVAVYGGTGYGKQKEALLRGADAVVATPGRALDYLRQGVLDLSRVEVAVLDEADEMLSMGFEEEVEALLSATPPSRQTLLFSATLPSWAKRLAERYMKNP

Hera RecA_C = molecular target: T3, Hera RecA_C (UniProt Q72GF3 208-369); assay: fluorescence intensity titration
T3 sequence: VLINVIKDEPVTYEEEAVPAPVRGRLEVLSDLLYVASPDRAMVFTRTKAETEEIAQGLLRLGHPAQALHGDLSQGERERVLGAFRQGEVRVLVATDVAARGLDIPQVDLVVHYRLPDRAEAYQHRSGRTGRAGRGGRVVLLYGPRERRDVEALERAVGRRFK

YxiN_core = molecular target: T4, YxiN_core (UniProt P42305 1-368); assay: fluorescence intensity titration
T4 sequence: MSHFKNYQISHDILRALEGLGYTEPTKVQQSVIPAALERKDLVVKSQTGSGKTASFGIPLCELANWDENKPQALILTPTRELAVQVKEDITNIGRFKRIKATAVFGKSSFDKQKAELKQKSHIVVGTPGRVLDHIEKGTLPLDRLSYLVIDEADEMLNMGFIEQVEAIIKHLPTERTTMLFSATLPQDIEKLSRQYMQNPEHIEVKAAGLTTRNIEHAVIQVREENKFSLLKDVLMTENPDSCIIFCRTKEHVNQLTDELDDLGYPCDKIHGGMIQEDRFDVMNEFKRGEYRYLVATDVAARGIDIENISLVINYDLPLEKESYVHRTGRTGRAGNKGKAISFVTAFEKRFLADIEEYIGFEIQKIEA

YxiN RecA_N = molecular target: T5, YxiN RecA_N (UniProt P42305 1-206); assay: fluorescence anisotropy
T5 sequence: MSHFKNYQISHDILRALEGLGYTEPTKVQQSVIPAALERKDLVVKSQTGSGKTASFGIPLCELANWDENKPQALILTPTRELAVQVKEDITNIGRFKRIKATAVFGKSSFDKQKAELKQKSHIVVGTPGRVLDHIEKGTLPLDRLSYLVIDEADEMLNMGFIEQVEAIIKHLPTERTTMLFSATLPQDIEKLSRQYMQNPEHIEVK

YxiN RecA_C = molecular target: T6, YxiN RecA_C (UniProt P42305 211-370); assay: fluorescence anisotropy
T6 sequence: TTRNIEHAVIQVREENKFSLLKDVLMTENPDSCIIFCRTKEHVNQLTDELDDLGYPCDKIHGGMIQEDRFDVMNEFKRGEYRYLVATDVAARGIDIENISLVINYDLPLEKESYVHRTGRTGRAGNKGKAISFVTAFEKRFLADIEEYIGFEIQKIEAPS

Hera_core [2] = molecular target: T1, Hera_core; assay: fluorescence intensity titration; remark: listed apart in the source

B1: 14mer dsRNA (dsRNA)
RNA 1: GGGCGGGCCCGCCC
RNA 2: GGGCGGGCCCGCCC
**Q.** B1 was tested. Which Kd (Hera_core [1]) did it give?
**A.** 7 ± 3 nM

**Q.** And the Kd (Hera RecA_N)?
**A.** 889 ± 236 nM

**Q.** What about the Kd (Hera RecA_C) of the same binder?
**A.** 327 ± 161 nM

**Q.** And the Kd (YxiN_core)?
**A.** 2 nM

**Q.** Does B1 bind (YxiN RecA_N)?
**A.** no binding

**Q.** Does B1 bind (YxiN RecA_C)?
**A.** no binding

**Q.** What about the Kd (Hera_core [2]) of the same binder?
**A.** 15.1 nM
